The record followed here is patent US20260125478A1 (VIELA BIO, published 2026).

By Kd is commonly meant a measure of binding affinity in units of concentration. In general, koff refers to a measure of how fast the partners let go of each other. Broadly, the kon is the second-order rate constant of association. As a reminder, the EC50 is the concentration needed to bring the measured effect to its halfway point. In general, EC50 (read off the curve) refers to the concentration that produces a half-maximal response.

In test [1] the target is T1, Human CD32A 131H extracellular domain, 6xHis_Flag tagged (human, UniProt P12318 34-217).
T1 construct: Used unlabelled as the analyte in Biacore; also called Hu CD32A_131His
T1 sequence: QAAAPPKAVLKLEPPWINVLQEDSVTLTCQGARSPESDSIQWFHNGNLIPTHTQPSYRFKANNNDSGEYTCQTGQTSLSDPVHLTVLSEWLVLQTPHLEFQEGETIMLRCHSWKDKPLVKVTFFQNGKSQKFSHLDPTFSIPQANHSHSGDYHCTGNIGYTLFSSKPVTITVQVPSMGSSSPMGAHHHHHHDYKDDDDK
Kind of test: Biacore; IgG1-TM captured on a Protein G chip, CD32A as analyte, 1:1 Langmuir fit, average of two experiments. For orientation: Surface plasmon resonance follows binding to a sensor surface in real time, without labels.

Test [2] has as its target T2, Human CD32A 131R extracellular domain, 6xHis_Flag tagged (human, UniProt P12318 34-217).
T2 construct: also called Hu CD32A_131Arg; human CD32A_131 Arg
T2 chain: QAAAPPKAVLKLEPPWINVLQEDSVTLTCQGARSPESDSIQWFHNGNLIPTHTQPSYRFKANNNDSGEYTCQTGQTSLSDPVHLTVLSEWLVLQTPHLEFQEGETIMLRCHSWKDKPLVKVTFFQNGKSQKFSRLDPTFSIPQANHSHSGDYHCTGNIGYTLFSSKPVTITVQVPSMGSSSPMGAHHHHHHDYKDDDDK
The test is described as above.

Test [3] has as its target T3, cynomolgus CD32A version 3, 6xHis tagged (cynomolgus monkey).
T3 construct: also called Cyno CD32A; cyno CD32A (version 3)
T3 chain: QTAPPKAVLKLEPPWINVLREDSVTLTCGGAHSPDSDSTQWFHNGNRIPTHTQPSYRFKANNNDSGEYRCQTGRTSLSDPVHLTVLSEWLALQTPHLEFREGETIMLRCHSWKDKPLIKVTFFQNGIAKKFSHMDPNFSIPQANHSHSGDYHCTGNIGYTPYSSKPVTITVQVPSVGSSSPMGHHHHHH
The test is described as above.

The target of test [4] is T4, human FcγRIIA on primary human cells (neutrophils; sorted CD14+ monocytes), allotype not stated (human, UniProt P12318 34-317).
T4 construct: whole, on cells; also called human FcγRIIA at the neutrophil surface; FcγRIIA-expressing neutrophils
T4 sequence (looked up): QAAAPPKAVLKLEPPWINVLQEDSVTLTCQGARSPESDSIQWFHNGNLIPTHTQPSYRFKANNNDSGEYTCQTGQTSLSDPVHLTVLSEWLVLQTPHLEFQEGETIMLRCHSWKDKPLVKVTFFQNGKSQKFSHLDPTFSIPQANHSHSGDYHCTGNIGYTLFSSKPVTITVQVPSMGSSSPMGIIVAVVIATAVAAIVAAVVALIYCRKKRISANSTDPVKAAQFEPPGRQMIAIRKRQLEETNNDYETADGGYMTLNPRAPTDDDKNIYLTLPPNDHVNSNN
Kind of test: flow cytometry, fluorescently labelled antibody on human neutrophils, in the presence of 10 mg/mL IVIG as competitor. The method, then: (§1) Human neutrophils were re-suspended in blocking buffer [phosphate-buffered saline (PBS) supplemented with 10% fetal bovine serum] and transferred to round-bottom 96-well culture plates (0.5×10^6 cells/well). […] After incubation, cells were washed with cold PBS and the mean fluorescence intensity (MFI) of cell-bound antibodies was assessed by flow cytometry using an LSRII (BD; Franklin Lakes, NJ). The EC₅₀ for binding was calculated using a non-linear fit equation in GraphPad Prism 6 software.
On the technique in general: Flow cytometry measures light scatter and fluorescence of single cells or particles in a stream.

Test [5] deals with cynomolgus monkey FcγRIIA on blood cells (cynomolgus monkey). Kind of test: cell-based or functional assay.
Test [6] deals with T5, recombinant FcγRIIB (ELISA coat, generated at MedImmune) (UniProt P31994 43-217, limits assumed).
T5 construct: also called CD32B
T5 sequence (looked up): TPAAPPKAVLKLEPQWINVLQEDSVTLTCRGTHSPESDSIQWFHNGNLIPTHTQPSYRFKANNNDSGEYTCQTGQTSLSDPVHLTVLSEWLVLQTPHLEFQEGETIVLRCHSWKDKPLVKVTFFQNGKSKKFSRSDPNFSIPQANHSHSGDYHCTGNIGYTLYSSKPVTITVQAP
Kind of test: ELISA on plate-coated FcγRIIB (2 µg/ml), detection with goat anti-human Fc-HRP. As for the experimental part:
(§2) Plates were washed five times with 200 μl of wash buffer (PBS containing 0.1% Tween 20), blocked with blocking buffer containing 5% milk in PBS for 1 hour at room temperature, and washed five additional times with wash buffer. Three-fold serial dilutions of the test antibody or control antibody (R347-Tm) were added to wells in duplicate. Plates were incubated for 2 hours at room temperature, and washed five times with wash buffer. Binding of the antibodies to the FcγRs was detected by adding 50 μl of goat anti-human Fc-HRP (Jackson ImmunoResearch Laboratories, PA) to the wells and incubating for 1 hour at room temperature, washing 10 times, and adding 50 μl TMB substrate (Pierce Biotechnology, MA). The color reaction was stopped with 50 μl 0.2M […] and the absorbance was measured using a spectrophotometer (Molecular Devices, CA) at […].
On the technique in general: ELISA stands for enzyme-linked immunosorbent assay.

Test [7] concerns the target T6, recombinant human FcγRIIIA-158F allotype (ELISA coat, generated at MedImmune) (human, UniProt P08637 17-208, limits assumed).
T6 construct: also called FcγRIII-158F allotype; CD16A 158F
As to the kind of experiment: ELISA on plate-coated FcγRIIIA-158F (2 µg/ml), detection with goat anti-human Fc-HRP. As for the experimental part:
as §2

In test [8] the target is T4, human FcγRIIA on primary human cells …. Kind of test: flow cytometry, fluorescently labelled antibody on human neutrophils, 30 min at 4 °C, without IVIG. The method, then:
as §1

Test [9] has as its target T7, recombinant FcγRIIA-131H/H allotype (ELISA coat, generated at MedImmune) (human, UniProt P12318 34-217, limits assumed).
T7 construct: also called human FcγRIIA; CD32A
T7 sequence (looked up): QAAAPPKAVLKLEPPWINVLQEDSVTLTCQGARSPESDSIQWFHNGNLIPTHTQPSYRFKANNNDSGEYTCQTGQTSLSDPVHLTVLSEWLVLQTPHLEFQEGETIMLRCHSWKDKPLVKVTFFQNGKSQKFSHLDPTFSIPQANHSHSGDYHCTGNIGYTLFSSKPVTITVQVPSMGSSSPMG
Kind of test: ELISA on plate-coated FcγRIIA-131H/H (2 µg/ml), detection with goat anti-human Fc-HRP. The method, then: as §2

T6 sequence (P08637 17-208 limits assumed): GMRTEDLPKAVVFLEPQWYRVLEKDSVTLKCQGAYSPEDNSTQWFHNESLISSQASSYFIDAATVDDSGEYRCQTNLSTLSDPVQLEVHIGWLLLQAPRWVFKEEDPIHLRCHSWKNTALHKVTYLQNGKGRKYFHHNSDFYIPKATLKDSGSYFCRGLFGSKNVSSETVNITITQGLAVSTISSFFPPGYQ

B1: 32LO0352 (MEDI9600) (antibody, human IgG1, V domains shown)
VH: QVQLVQSGAEVKKPGASVKVSCKASGYTFTNYGMNWVRQAPGQRLEWMGWLNTYTGESWYPDDFKGRVTITRDTSASTAYMELSSLRSEDTAVYYCARGDYGYDDPLDYWGQGTLVTVSS
VL: DIVMTQSPLSLPVTPGEPASISCRSSKSLLHTNQNTYLHWFLQKPGQSPQLLIYRMSVLASGVPDRFSGSGSGTDFTLKISRVEAEDVGVYYCMQHLEYPLTFGQGTKLEIK
notes: Fluorescently labelled in the neutrophil flow cytometry assay and Alexa 647 labelled for confocal microscopy; also called clone 32LO0352; CD32LO0352
Turning to B1, the Kd in test [1] turned out to be 0.13 nM; in [2] it was 0.15 nM; in test [3] it was 31.3 nM. For the same molecule, the koff in [1] was 0.000337 s⁻¹; in [2], 0.000735 s⁻¹; in test [3], 0.0904 s⁻¹. The kon amounted to 2.6e+06 M⁻¹ s⁻¹ in test [1], 4.98e+06 M⁻¹ s⁻¹ in [2] and 2.88e+06 M⁻¹ s⁻¹ in test [3]. Also, the EC50 came to 3.34 nM in [4] and 0.0293 nM in test [8]. Moreover, in [5], the “IC50 of the loss of surface FcγRIIA (M.F.I of IV.3-Alexa 647) on cynomolgus monocytes, whole blood, 2 h at 37 °C” value turned out to be 1.09 nM. Besides, the binding result in test [6] and in test [7] was “no binding (tested: about 15000 ng/ml)” each time. For the same molecule, the “EC50 (read off the curve)” value in test [9] is approximately 5 ng/mL.
